Measured values taken from patent US20190127444A1 (NEW YORK UNIVERSITY, published 2019).

T1: LukAB toxoid variant (LukA E323A), recombinant polyhistidine-tagged (S. aureus, UniProt Q2FFA2 28-351; P21224 30-338)
T1 sequence 1: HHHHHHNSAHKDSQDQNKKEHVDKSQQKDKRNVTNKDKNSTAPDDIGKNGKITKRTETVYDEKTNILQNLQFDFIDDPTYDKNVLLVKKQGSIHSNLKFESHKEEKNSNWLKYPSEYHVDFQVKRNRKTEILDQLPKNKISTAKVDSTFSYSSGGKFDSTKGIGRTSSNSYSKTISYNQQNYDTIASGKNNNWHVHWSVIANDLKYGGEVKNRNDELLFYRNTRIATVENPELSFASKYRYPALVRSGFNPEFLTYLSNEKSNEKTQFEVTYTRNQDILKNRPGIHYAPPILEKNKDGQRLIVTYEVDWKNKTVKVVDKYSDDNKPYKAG
T1 sequence 2: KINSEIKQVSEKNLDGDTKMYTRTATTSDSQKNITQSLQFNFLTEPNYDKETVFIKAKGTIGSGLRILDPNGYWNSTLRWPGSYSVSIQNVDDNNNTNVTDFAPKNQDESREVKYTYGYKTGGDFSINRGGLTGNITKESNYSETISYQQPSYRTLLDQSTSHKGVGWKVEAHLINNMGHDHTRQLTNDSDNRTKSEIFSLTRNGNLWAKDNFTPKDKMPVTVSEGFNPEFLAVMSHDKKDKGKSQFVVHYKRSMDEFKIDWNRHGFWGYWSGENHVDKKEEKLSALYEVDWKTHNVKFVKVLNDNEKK

B1: 0×1 linker variant of Construct 11 (bispecific antibody)
heavy: EVQLVETGGGLVKPGGSLRLSCSASRFSFRDYYMTWIRQAPGKGPEWVSHISGSGSTIYYADSVRGRFTISRDNAKSSLYLQMDSLQADDTAVYYCARGGRATSYYWVHWGPGTLVTVSSASTKGPSVFPLAPSSKSTSGGTAALGCLVKDYFPEPVTVSWNSGALTSGVHTFPAVLQSSGLYSLSSVVTVPSSSLGTQTYICNVNHKPSNTKVDKKVEPKSCDKTHTCPPCPAPPVAGPDVFLFPPKPKDTLMISRTPEVTCVVVDVSHEDPEVKFNWYVDGVEVHNAKTKPREEQYNSTYRVVSVLTVLHQDWLNGKEYKCKVSNAALPAPIAKTISKAKGQPREPQVYTLPPSRDELTKNQVSLTCLVKGFYPSDIAVEWESNGQPENNYKTTPPVLDSDGSFFLYSKLTVDKSRWQQGNVFSCSVMHEALHNRFTQKSLSLSPGKMLPAPKNLVVSRVTEDSARLSWTAPDAAFDSFHIEYAEPWVWGEAIVLTVPGSERSYDLTGLKPGTEYVVFIGGVKGGHNSTPLSAIFTTGGGGSMLPAPKNLVVSRVTEDSARLSWTAPDAAFDSFWITYEEKFYRGEAIVLTVPGSERSYDLTGLKPGTEYKVWIVGVKGGQGSWPLSAIFTT
light: EIVLTQSPATLSLSPGERATLSCRASQSVSGYLGWYQQKPGQAPRLLIYGASSRATGIPDRFSGSGSGTDFTLTISRLEPEDFAVYYCQQYGSSPLTFGGGTKLEIKRTVAAPSVFIFPPSDEQLKSGTASVVCLLNNFYPREAKVQWKVDNALQSGNSQESVTEQDSKDSTYSLSSTLTLSKADYEKHKVYACEVTHQGLSSPVTKSFNRGEC
B2: 1×4 linker variant of Construct 11 (bispecific antibody)
heavy: EVQLVETGGGLVKPGGSLRLSCSASRFSFRDYYMTWIRQAPGKGPEWVSHISGSGSTIYYADSVRGRFTISRDNAKSSLYLQMDSLQADDTAVYYCARGGRATSYYWVHWGPGTLVTVSSASTKGPSVFPLAPSSKSTSGGTAALGCLVKDYFPEPVTVSWNSGALTSGVHTFPAVLQSSGLYSLSSVVTVPSSSLGTQTYICNVNHKPSNTKVDKKVEPKSCDKTHTCPPCPAPPVAGPDVFLFPPKPKDTLMISRTPEVTCVVVDVSHEDPEVKFNWYVDGVEVHNAKTKPREEQYNSTYRVVSVLTVLHQDWLNGKEYKCKVSNAALPAPIAKTISKAKGQPREPQVYTLPPSRDELTKNQVSLTCLVKGFYPSDIAVEWESNGQPENNYKTTPPVLDSDGSFFLYSKLTVDKSRWQQGNVFSCSVMHEALHNRFTQKSLSLSPGKGGGGSMLPAPKNLVVSRVTEDSARLSWTAPDAAFDSFHIEYAEPWVWGEAIVLTVPGSERSYDLTGLKPGTEYVVFIGGVKGGHNSTPLSAIFTTGGGGSGGGGSGGGGSGGGGSMLPAPKNLVVSRVTEDSARLSWTAPDAAFDSFWITYEEKFYRGEAIVLTVPGSERSYDLTGLKPGTEYKVWIVGVKGGQGSWPLSAIFTT
light: B1 light
B3: 0×4 linker variant of Construct 11 (bispecific antibody)
heavy: EVQLVETGGGLVKPGGSLRLSCSASRFSFRDYYMTWIRQAPGKGPEWVSHISGSGSTIYYADSVRGRFTISRDNAKSSLYLQMDSLQADDTAVYYCARGGRATSYYWVHWGPGTLVTVSSASTKGPSVFPLAPSSKSTSGGTAALGCLVKDYFPEPVTVSWNSGALTSGVHTFPAVLQSSGLYSLSSVVTVPSSSLGTQTYICNVNHKPSNTKVDKKVEPKSCDKTHTCPPCPAPPVAGPDVFLFPPKPKDTLMISRTPEVTCVVVDVSHEDPEVKFNWYVDGVEVHNAKTKPREEQYNSTYRVVSVLTVLHQDWLNGKEYKCKVSNAALPAPIAKTISKAKGQPREPQVYTLPPSRDELTKNQVSLTCLVKGFYPSDIAVEWESNGQPENNYKTTPPVLDSDGSFFLYSKLTVDKSRWQQGNVFSCSVMHEALHNRFTQKSLSLSPGKMLPAPKNLVVSRVTEDSARLSWTAPDAAFDSFHIEYAEPWVWGEAIVLTVPGSERSYDLTGLKPGTEYVVFIGGVKGGHNSTPLSAIFTTGGGGSGGGGSGGGGSGGGGSMLPAPKNLVVSRVTEDSARLSWTAPDAAFDSFWITYEEKFYRGEAIVLTVPGSERSYDLTGLKPGTEYKVWIVGVKGGQGSWPLSAIFTT
light: B1 light
B4: 0×2 linker variant of Construct 11 (bispecific antibody)
heavy: EVQLVETGGGLVKPGGSLRLSCSASRFSFRDYYMTWIRQAPGKGPEWVSHISGSGSTIYYADSVRGRFTISRDNAKSSLYLQMDSLQADDTAVYYCARGGRATSYYWVHWGPGTLVTVSSASTKGPSVFPLAPSSKSTSGGTAALGCLVKDYFPEPVTVSWNSGALTSGVHTFPAVLQSSGLYSLSSVVTVPSSSLGTQTYICNVNHKPSNTKVDKKVEPKSCDKTHTCPPCPAPPVAGPDVFLFPPKPKDTLMISRTPEVTCVVVDVSHEDPEVKFNWYVDGVEVHNAKTKPREEQYNSTYRVVSVLTVLHQDWLNGKEYKCKVSNAALPAPIAKTISKAKGQPREPQVYTLPPSRDELTKNQVSLTCLVKGFYPSDIAVEWESNGQPENNYKTTPPVLDSDGSFFLYSKLTVDKSRWQQGNVFSCSVMHEALHNRFTQKSLSLSPGKMLPAPKNLVVSRVTEDSARLSWTAPDAAFDSFHIEYAEPWVWGEAIVLTVPGSERSYDLTGLKPGTEYVVFIGGVKGGHNSTPLSAIFTTGGGGSGGGGSMLPAPKNLVVSRVTEDSARLSWTAPDAAFDSFWITYEEKFYRGEAIVLTVPGSERSYDLTGLKPGTEYKVWIVGVKGGQGSWPLSAIFTT
light: B1 light
B5: 3×2 linker variant of Construct 11 (bispecific antibody)
heavy: EVQLVETGGGLVKPGGSLRLSCSASRFSFRDYYMTWIRQAPGKGPEWVSHISGSGSTIYYADSVRGRFTISRDNAKSSLYLQMDSLQADDTAVYYCARGGRATSYYWVHWGPGTLVTVSSASTKGPSVFPLAPSSKSTSGGTAALGCLVKDYFPEPVTVSWNSGALTSGVHTFPAVLQSSGLYSLSSVVTVPSSSLGTQTYICNVNHKPSNTKVDKKVEPKSCDKTHTCPPCPAPPVAGPDVFLFPPKPKDTLMISRTPEVTCVVVDVSHEDPEVKFNWYVDGVEVHNAKTKPREEQYNSTYRVVSVLTVLHQDWLNGKEYKCKVSNAALPAPIAKTISKAKGQPREPQVYTLPPSRDELTKNQVSLTCLVKGFYPSDIAVEWESNGQPENNYKTTPPVLDSDGSFFLYSKLTVDKSRWQQGNVFSCSVMHEALHNRFTQKSLSLSPGKGGGGSGGGGSGGGGSMLPAPKNLVVSRVTEDSARLSWTAPDAAFDSFHIEYAEPWVWGEAIVLTVPGSERSYDLTGLKPGTEYVVFIGGVKGGHNSTPLSAIFTTGGGGSGGGGSMLPAPKNLVVSRVTEDSARLSWTAPDAAFDSFWITYEEKFYRGEAIVLTVPGSERSYDLTGLKPGTEYKVWIVGVKGGQGSWPLSAIFTT
light: B1 light
B6: 0×3 linker variant of Construct 11 (bispecific antibody)
heavy: EVQLVETGGGLVKPGGSLRLSCSASRFSFRDYYMTWIRQAPGKGPEWVSHISGSGSTIYYADSVRGRFTISRDNAKSSLYLQMDSLQADDTAVYYCARGGRATSYYWVHWGPGTLVTVSSASTKGPSVFPLAPSSKSTSGGTAALGCLVKDYFPEPVTVSWNSGALTSGVHTFPAVLQSSGLYSLSSVVTVPSSSLGTQTYICNVNHKPSNTKVDKKVEPKSCDKTHTCPPCPAPPVAGPDVFLFPPKPKDTLMISRTPEVTCVVVDVSHEDPEVKFNWYVDGVEVHNAKTKPREEQYNSTYRVVSVLTVLHQDWLNGKEYKCKVSNAALPAPIAKTISKAKGQPREPQVYTLPPSRDELTKNQVSLTCLVKGFYPSDIAVEWESNGQPENNYKTTPPVLDSDGSFFLYSKLTVDKSRWQQGNVFSCSVMHEALHNRFTQKSLSLSPGKMLPAPKNLVVSRVTEDSARLSWTAPDAAFDSFHIEYAEPWVWGEAIVLTVPGSERSYDLTGLKPGTEYVVFIGGVKGGHNSTPLSAIFTTGGGGSGGGGSGGGGSMLPAPKNLVVSRVTEDSARLSWTAPDAAFDSFWITYEEKFYRGEAIVLTVPGSERSYDLTGLKPGTEYKVWIVGVKGGQGSWPLSAIFTT
light: B1 light

These binders were tested against T1, LukAB toxoid variant (LukA E323A), … (assay: ELISA, biotinylated toxin on streptavidin plate).
B1: binds.
B2: binds.
B3: binds.
B4: binds.
B5: binds.
B6: binds.
